Results published in paper PMC6382870.

Legend:
[1] = target: PvNVPd (250-368) (Penaeus vannamei nodavirus (PvNV)); assay: SEC; P-domains without the SUMO-tag; column and buffer not stated
[2] = target: MrNVPd double-mutant K327A/D329A (Macrobrachium rosenbergii nodavirus (MrNV)); assay: as above
[3] = target: MrNVPd (246-371) (Macrobrachium rosenbergii nodavirus (MrNV)); assay: as above
[4] = target: MrNVPd double-mutant Y293A/D295A (Macrobrachium rosenbergii nodavirus (MrNV)); assay: as above
[5] = target: PvNV capsid protein (1-368) (Penaeus vannamei nodavirus (PvNV)); assay: cryo-EM structure; T = 3 PvNV-LP particles (~29-35 nm) picked from the assembled sample, 6 mg/mL, icosahedral symmetry, 3.5 Å
[6] = target: PvNV capsid protein (1-368) (Penaeus vannamei nodavirus (PvNV)); assay: cryo-EM structure; T = 1 PvNV-LP particles (~22-24 nm) picked from the same sample, icosahedral symmetry, 3.7 Å

**Q.** PvNVPd (250-368) (domain or fragment) was tested. Which stoichiometry N [1] did it give?
**A.** Its stoichiometry N is 2.

**Q.** How did the stoichiometry N [2] turn out when “MrNVPd double-mutant K327A/D329A (domain or fragment)” was run?
**A.** Its stoichiometry N is 2.

**Q.** Which stoichiometry N [3] does the source give for MrNVPd (246-371) (domain or fragment) here?
**A.** Its stoichiometry N is 2.

**Q.** For “MrNVPd double-mutant Y293A/D295A (domain or fragment)”, which stoichiometry N [4] is on record?
**A.** Its stoichiometry N is 2.

**Q.** Which results are given for “PvNV capsid protein (1-368) (natural protein)”?
**A.** stoichiometry N [5]: 180 copies; stoichiometry N [6]: 60
